Reference: paper PMC2192141

Target: HMG I/Y (recombinant HMG I) (UniProt P17096 1-107)
Test: EMSA

Sequence of HMG I/Y (recombinant HMG I) (P17096 whole entry): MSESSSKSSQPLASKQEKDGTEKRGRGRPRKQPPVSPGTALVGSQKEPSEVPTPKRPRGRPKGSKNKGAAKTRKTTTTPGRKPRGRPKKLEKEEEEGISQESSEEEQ

Binder	binding result
MOCT (mutant octamer) (dsDNA) DNA 1: AGAGTAATTGATGGGCATTTTAATGG DNA 2: CCATTAAAATGCCCATCAATTACTCT	no binding
MIS (mutant D box) (dsDNA) DNA 1: ATCTCAAAATATGGGTCTGATTGGCCA DNA 2: TGGCCAATCAGACCCATATTTTGAGAT	no binding
